The text below walks through data of paper PMC314469, “Protein Interaction Networks by Proteome Peptide Scanning” (PLoS Biology, 2004).

The chains are these.
T1: amphyphisin SH3 (AMPH_HUMAN), P49418
T1 chain: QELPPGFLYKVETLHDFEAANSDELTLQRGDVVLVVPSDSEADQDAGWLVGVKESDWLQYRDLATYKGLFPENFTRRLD

The first assay concerns the target T1, amphyphisin SH3 (AMPH_HUMAN), P49418. Nature of the assay: SPOT array.
Consider FLLLPPRPPPARPE [Q96IC8 98-112], for which the normalised SPOT signal, Boehringer light units (BLU); mean over the file's lines of this peptide amounted to 42.3.

In the case of FDGSPEKPPEDDSD [O94885 388-402], the normalised SPOT signal, Boehringer light units (BLU); mean over the file's lines of this peptide turned out to be 36.5.

FHKIFIRPLRYRSR [Q13258 335-348]: the normalised SPOT signal, Boehringer light units (BLU); mean over the file's lines of this peptide came to 15900.

Molecule EVMILRRPSLQRRA [Q9ULT8 713-726] registered a normalised SPOT signal, Boehringer light units (BLU); mean over the file's lines of this peptide of 236.

In the case of FLGHIKRPWGISVG [Q12908 58-71], the normalised SPOT signal, Boehringer light units (BLU); mean over the file's lines of this peptide came to 34.2.

For EVPTPKRPRGRPKG [P17096 49-62], the normalised SPOT signal, Boehringer light units (BLU); mean over the file's lines of this peptide is 36.

Consider FAPEFRRPKNIHLR [Q9UPW7 1021-1034], for which the normalised SPOT signal, Boehringer light units (BLU); mean over the file's lines of this peptide stood at 41.6.

Consider FGAVLRRPHDPKTV [Q07283 41-54], for which the normalised SPOT signal, Boehringer light units (BLU); mean over the file's lines of this peptide worked out at 18.4.

In turn, AHMAISRPLKASQM [Q9HCH8 560-573] yielded a normalised SPOT signal, Boehringer light units (BLU); mean over the file's lines of this peptide of 137.

The molecule FERPFRRPNANFTS [Q9NVW8 331-344] came in with a normalised SPOT signal, Boehringer light units (BLU); mean over the file's lines of this peptide of 4010.

For EYALPQRPPQGPED [BAC04305 7-21], the normalised SPOT signal, Boehringer light units (BLU); mean over the file's lines of this peptide came to 38.5.

With AGSSPRRPQGGSDA [Q96IQ9 293-306], the normalised SPOT signal, Boehringer light units (BLU); mean over the file's lines of this peptide is 20.7.

FFKGIRRPWKGVLM [O75449 234-247] registered a normalised SPOT signal, Boehringer light units (BLU); mean over the file's lines of this peptide of 62.9.

The molecule EVPDPNRPQRLGLH [O60275 1047-1060] showed a normalised SPOT signal, Boehringer light units (BLU); mean over the file's lines of this peptide of 198.

In the case of FDNTLSRPSRVPLG [Q99743 208-221], the normalised SPOT signal, Boehringer light units (BLU); mean over the file's lines of this peptide was 1220.

For the molecule AIAPPPRPPKPSQA [Q9UQC2 347-361], the normalised SPOT signal, Boehringer light units (BLU); mean over the file's lines of this peptide worked out at 3020.

On to FGTLPPRPPGQDTS [O75336 479-493], for which the normalised SPOT signal, Boehringer light units (BLU); mean over the file's lines of this peptide is 52.3.

Turning to FLDYLKRPGLTYLQ [O14802 125-138], the normalised SPOT signal, Boehringer light units (BLU); mean over the file's lines of this peptide amounted to 14.8.

As to FSDFLKRPIALLKM [Q9H3T9 40-53], the normalised SPOT signal, Boehringer light units (BLU); mean over the file's lines of this peptide turned out to be 22.

As for EVQPPVRPGKGGSV [Q9BXU7 105-118], the normalised SPOT signal, Boehringer light units (BLU); mean over the file's lines of this peptide turned out to be 143.

FDGRPTKPPPNSYS [P17480 292-306] had a normalised SPOT signal, Boehringer light units (BLU); mean over the file's lines of this peptide of 66.2.

Regarding EWIVFRRPVPISYH [P23470 266-279], the normalised SPOT signal, Boehringer light units (BLU); mean over the file's lines of this peptide came to 95.2.

FEEGIKRPYFHVKP [Q9NWR1 213-226]: the normalised SPOT signal, Boehringer light units (BLU); mean over the file's lines of this peptide stood at 48.9.

On to FLAKIARPKKRAET [P78508 165-178], for which the normalised SPOT signal, Boehringer light units (BLU); mean over the file's lines of this peptide came to 168.

EWASLLRPLRGREP [O94987 53-66] registered a normalised SPOT signal, Boehringer light units (BLU); mean over the file's lines of this peptide of 308.

On to FLNRLVRPRRSAPK [O43508 84-97], for which the normalised SPOT signal, Boehringer light units (BLU); mean over the file's lines of this peptide was 724.

FGDLPRKPPLPSSA [Q96QH2 422-436] had a normalised SPOT signal, Boehringer light units (BLU); mean over the file's lines of this peptide of 48.3.

Turning to FKDVLLRPKRSSLK [P36959 12-25], the normalised SPOT signal, Boehringer light units (BLU); mean over the file's lines of this peptide stood at 3460.

As for FGLVPERPLKQELG [Q99526 361-374], the normalised SPOT signal, Boehringer light units (BLU); mean over the file's lines of this peptide was determined as 647.

On to AHLPPPRPQRPAET [Q9UFB1 214-227], for which the normalised SPOT signal, Boehringer light units (BLU); mean over the file's lines of this peptide was found to be 248.

For the molecule FLSIPRRPNWNQNT [Q9NUK8 110-123], the normalised SPOT signal, Boehringer light units (BLU); mean over the file's lines of this peptide amounted to 164.

Molecule EYHRPAKPPPPPTG [BAC04960 97-111] showed a normalised SPOT signal, Boehringer light units (BLU); mean over the file's lines of this peptide of 43.8.

In turn, EVLELRRPMDSRLE [P78524 857-870] came in with a normalised SPOT signal, Boehringer light units (BLU); mean over the file's lines of this peptide of 43.8.

Turning to FGDKFKRPIGSWES [P49790 786-799], the normalised SPOT signal, Boehringer light units (BLU); mean over the file's lines of this peptide stood at 34.

Molecule FGRRPRRPVDGRVG [Q8WUZ5 5-18] registered a normalised SPOT signal, Boehringer light units (BLU); mean over the file's lines of this peptide of 35.7.

FEGSLRRPLSWKSL [Q9BPU7 391-404] gave a normalised SPOT signal, Boehringer light units (BLU); mean over the file's lines of this peptide of 43.8.

On to FLGGPARPPSPSPS [P08588 264-278], for which the normalised SPOT signal, Boehringer light units (BLU); mean over the file's lines of this peptide was 80.6.

FIKIPRRPDQPGKG [Q99853 71-84]: the normalised SPOT signal, Boehringer light units (BLU); mean over the file's lines of this peptide is 117.

A further assay has as its target endophilin SH3 (SH3G2_HUMAN), Q99962. The experiment in a line: SPOT array.
As to FLLLPPRPPPARPE [Q96IC8 98-112], the normalised SPOT signal, Boehringer light units (BLU); mean over the file's lines of this peptide is 2020.

With FDGSPEKPPEDDSD [O94885 388-402], the normalised SPOT signal, Boehringer light units (BLU); mean over the file's lines of this peptide is 36.7.

Molecule FHKIFIRPLRYRSR [Q13258 335-348] displayed a normalised SPOT signal, Boehringer light units (BLU); mean over the file's lines of this peptide of 2980.

The molecule EVMILRRPSLQRRA [Q9ULT8 713-726] yielded a normalised SPOT signal, Boehringer light units (BLU); mean over the file's lines of this peptide of 2210.

Molecule FLGHIKRPWGISVG [Q12908 58-71] gave a normalised SPOT signal, Boehringer light units (BLU); mean over the file's lines of this peptide of 116.

EVPTPKRPRGRPKG [P17096 49-62] showed a normalised SPOT signal, Boehringer light units (BLU); mean over the file's lines of this peptide of 41.8.

For the molecule FAPEFRRPKNIHLR [Q9UPW7 1021-1034], the normalised SPOT signal, Boehringer light units (BLU); mean over the file's lines of this peptide came to 204.

As to FGAVLRRPHDPKTV [Q07283 41-54], the normalised SPOT signal, Boehringer light units (BLU); mean over the file's lines of this peptide was 51.1.

Turning to AHMAISRPLKASQM [Q9HCH8 560-573], the normalised SPOT signal, Boehringer light units (BLU); mean over the file's lines of this peptide turned out to be 417.

For the molecule FERPFRRPNANFTS [Q9NVW8 331-344], the normalised SPOT signal, Boehringer light units (BLU); mean over the file's lines of this peptide worked out at 343.

In the case of EYALPQRPPQGPED [BAC04305 7-21], the normalised SPOT signal, Boehringer light units (BLU); mean over the file's lines of this peptide stood at 36.6.

AGSSPRRPQGGSDA [Q96IQ9 293-306] gave a normalised SPOT signal, Boehringer light units (BLU); mean over the file's lines of this peptide of 51.2.

Take FFKGIRRPWKGVLM [O75449 234-247]: the normalised SPOT signal, Boehringer light units (BLU); mean over the file's lines of this peptide is 159.

For the molecule EVPDPNRPQRLGLH [O60275 1047-1060], the normalised SPOT signal, Boehringer light units (BLU); mean over the file's lines of this peptide stood at 228.

In the case of FDNTLSRPSRVPLG [Q99743 208-221], the normalised SPOT signal, Boehringer light units (BLU); mean over the file's lines of this peptide was 170.

On to AIAPPPRPPKPSQA [Q9UQC2 347-361], for which the normalised SPOT signal, Boehringer light units (BLU); mean over the file's lines of this peptide was determined as 5760.

FGTLPPRPPGQDTS [O75336 479-493] came in with a normalised SPOT signal, Boehringer light units (BLU); mean over the file's lines of this peptide of 77.3.

FLDYLKRPGLTYLQ [O14802 125-138] returned a normalised SPOT signal, Boehringer light units (BLU); mean over the file's lines of this peptide of 7.9.

FSDFLKRPIALLKM [Q9H3T9 40-53] showed a normalised SPOT signal, Boehringer light units (BLU); mean over the file's lines of this peptide of 399.

Molecule EVQPPVRPGKGGSV [Q9BXU7 105-118] had a normalised SPOT signal, Boehringer light units (BLU); mean over the file's lines of this peptide of 136.

In the case of FDGRPTKPPPNSYS [P17480 292-306], the normalised SPOT signal, Boehringer light units (BLU); mean over the file's lines of this peptide amounted to 351.

Molecule EWIVFRRPVPISYH [P23470 266-279] came in with a normalised SPOT signal, Boehringer light units (BLU); mean over the file's lines of this peptide of 557.

For FEEGIKRPYFHVKP [Q9NWR1 213-226], the normalised SPOT signal, Boehringer light units (BLU); mean over the file's lines of this peptide is 147.

For the molecule FLAKIARPKKRAET [P78508 165-178], the normalised SPOT signal, Boehringer light units (BLU); mean over the file's lines of this peptide turned out to be 190.

For the molecule EWASLLRPLRGREP [O94987 53-66], the normalised SPOT signal, Boehringer light units (BLU); mean over the file's lines of this peptide came to 170.

FLNRLVRPRRSAPK [O43508 84-97]: the normalised SPOT signal, Boehringer light units (BLU); mean over the file's lines of this peptide was found to be 2010.

Take FGDLPRKPPLPSSA [Q96QH2 422-436]: the normalised SPOT signal, Boehringer light units (BLU); mean over the file's lines of this peptide is 994.

For the molecule FKDVLLRPKRSSLK [P36959 12-25], the normalised SPOT signal, Boehringer light units (BLU); mean over the file's lines of this peptide turned out to be 557.

In turn, FGLVPERPLKQELG [Q99526 361-374] yielded a normalised SPOT signal, Boehringer light units (BLU); mean over the file's lines of this peptide of 284.

AHLPPPRPQRPAET [Q9UFB1 214-227] came in with a normalised SPOT signal, Boehringer light units (BLU); mean over the file's lines of this peptide of 238.

FLSIPRRPNWNQNT [Q9NUK8 110-123]: the normalised SPOT signal, Boehringer light units (BLU); mean over the file's lines of this peptide came to 1230.

Turning to EYHRPAKPPPPPTG [BAC04960 97-111], the normalised SPOT signal, Boehringer light units (BLU); mean over the file's lines of this peptide was 86.

On to EVLELRRPMDSRLE [P78524 857-870], for which the normalised SPOT signal, Boehringer light units (BLU); mean over the file's lines of this peptide came to 34.9.

FGDKFKRPIGSWES [P49790 786-799] displayed a normalised SPOT signal, Boehringer light units (BLU); mean over the file's lines of this peptide of 45.5.

For FGRRPRRPVDGRVG [Q8WUZ5 5-18], the normalised SPOT signal, Boehringer light units (BLU); mean over the file's lines of this peptide turned out to be 83.3.

Regarding FEGSLRRPLSWKSL [Q9BPU7 391-404], the normalised SPOT signal, Boehringer light units (BLU); mean over the file's lines of this peptide was found to be 67.7.

FLGGPARPPSPSPS [P08588 264-278] gave a normalised SPOT signal, Boehringer light units (BLU); mean over the file's lines of this peptide of 8610.

In turn, FIKIPRRPDQPGKG [Q99853 71-84] had a normalised SPOT signal, Boehringer light units (BLU); mean over the file's lines of this peptide of 479.
